Experimental findings from the DeepSol protein solubility set are described below.

The series is described as follows: soluble on expression in E. coli; label from the status in PepcDB or PDB records.
In the case of “MSSKLVLVLNCGSSSLKFAIIDAVNGEEYLSGLAECFHLPEARIKWKMDGNKQEAALGAGAAHSEALNFIVNTILAQKPELSAQLTAIGHRIVHGGEKYTSSVVIDESVIQGIKDAASFAPLHNPAHLIGIEEALKSFPQLKDKNVAVFDTAFHQTMPEESYLYALPYNLYKEHGIRRYGAHGTSHFYVTQEAAKMLNKPVEELNIITCHLGNGGSVSAIRNGKCVDTSMGLTPLEGLVMGTRSGDIDPAIIFHLHDTLGMSVDAINKLLTKESGLLGLTEVTSDCRYVEDNYATKEDAKRAMDVYCHRLAKYIGAYTALMDGRLDAVVFTGGIGENAAMVRELSLGKLGVLGFEVDHERNLAARFGKSGFINKEGTRPAVVIPTNEELVIAQDASRLTA”, the “soluble on expression in E. coli” value is “soluble”.

Regarding “MSSKPLLTLQELAAQNILRNEALAISALQYLPELFLPQLLKQAYDGNHLKVLRAIVSSWPFPRLPLGALKKRTPYLETQLQVVLEEVDKLLIQEVHPREYKLEVLDLRSVGQNYLNVWPGAMDDWLPKTTQTDPCCSKTVMTQPLKVLVDLQLNNRGQSRLFSYLVQWSDRRKGLLQLYCNKLQIWSPSQQNYRKLSQKVNLDYVETLGLHSSCSPSFLLNFAPYLRQMRNLRKLALSNIREEHIISPEKRRCIITRFTLQILKLESLQKLHLDAVCFLEGHLDQLLGSVKTSLDELAVTHCNLSVSEWSHFSEFPCVSQLQQLNLENVRLTGLSPEPLQVLLVKAGPTLVALDLEDCHLEDGQLYAILPALSKCFKLTKFSFYGNQISMLAMKDLLHHTASLIHLRLELYPVPQDSYDYHGTPLMQRMQQHCDELMNLLKTFRNPGRVFFGTDRCDQCCNRYIYNKTIMCNCRRSY”, the “soluble on expression in E. coli” value is listed as “not soluble”.

“MSSKVSPLAPTDVPAMPMIAGVRLATAAAGIRYKGRTDVLLVEMEKGTTVAGVFTTSKCASAPVEWCRDKLKGGSARALVVNSGNANAFTGKSGKQAATLTAQLAAKAIGCKPAEVFLASTGVIGEPLDATKFDGVLDALALDAGPDGWMDAAKAIMTTDTFPKVATATVKLGKAKVTINGMAKGAGMIAPDMATMLSFIFTDAPLSASCLQALLKAGVTDTFNAVTIDGDTSTSDTLLAFATGAAAENGAPKISRASDPRLKAFVKAFNAVLADLAEQVARDGEGARKLVEIIVEGAKTKVSARKIALSIANSPLVKTAIAGEDANWGRVVMAVGKAGEPADRDKLSISFNGIRVAKAGARDPSYNEKEVSAEMKKPVIQIKVALGLGKGRDRVLTCDLTKEYVAINGDYRSLEHHHHHH”: the “soluble on expression in E. coli” value was “not soluble”.

Turning to “MSSNAQVRPPLPPFTRESAIEKIRLAEDGWNSRDPERVSLAYTLDTQWRNRAEFAHNREEAKAFLTRKWAKELDYRLIKELWAFTDNRIAVRYAYEWHDDSGNWFRSYGNENWEFDEQGLMARRFACINDMPIKAQERKFHWPLGRRPDDHPGLSELGLLEHHHHHH”, the “soluble on expression in E. coli” value is “soluble”.

With “MSSNPLRFFVLTIFPHIISCYSEYGIVKQAIKKGKVEVYPIDLREFAPKGQVDDVPYGGLPGMVLKPEPIYEAYDYVVENYGKPFVLITEPWGEKLNQKLVNELSKKERIMIICGRYEGVDERVKKIVDMEISLGDFILSGGEIVALAVIDAVSRVLPGVLSEPQSIQEDSFQNRWLGYPVYTRPREYRGMKVPEELLSGHHKLIELWKLWHRIENTVKKRPDLIPKDLTELEKDILNSILSGKSFKEWLKEHKHLL”, the “soluble on expression in E. coli” value was “soluble”.

For “MSSNPSSVEKKLLHYTGKAIADFNMIQRGDRVMVCLSGGKDSFTLLTILNQLRIKSGNKFEIFAFTLDQAQPGWNDACLRQWLAEKSIPHEILTRDTYSIVKEKIPEGKTYCSLCSRLRRGIIYRYAEENGFNKIALGHHRDDLVRTLMMSILYNGDIRSMPPKLLSDNKKHIVIRPLCYVQEKDIITFASEQAFPIIPCNLCGSQENLMRKKVASLIDQLAIENPKVPSNMLHALQSLKPSQLMDQNFWNFKNLEDGLETTQSIQCEEVFNAQEFELEDEKI”, the “soluble on expression in E. coli” value is given as “not soluble”.

Turning to “MSSNYATPLDDEVFPLSFANYQFTEHVSLGEHYSLNTSEDAKYNNLNGPFVVPRDTGKFDLNTSSASDETVFSLDNPQENNYKHQAMNNVQDCRMAVAAKTTQSCDKLTDLYANAAQQNYRLWLSSF”, the “soluble on expression in E. coli” value is on record as “not soluble”.

For “MSSNYIYRTAEKSDFDRILKFLAEHFYHEEPSIRASKIALEEWLPIFGEMTTSSLKLPISTVVTTEDGENIVAVLLNSMWSREEDEERMKHGNGKGDHDTSGYSEALQRFMTIVQKCHDEFWNLAPSDVNLVVYREISSVGKPWQRQGIATKMLSRNMSAARLHNVDGIVSATSSFANQTLLAKNGFQCLKEFPYSGIVSSNGDKLVETDDGSHGMRINFKRIEKSGNGPCEMEPPKSATFQNVATSVSS”, the “soluble on expression in E. coli” value is given as “soluble”.

Take “MSSPRHVFYISDRTGLTAENIGEALLNQFGNLSFKRHTHPFVDTPEKARAVVEKVNRSRQENGQRPIAFVSVVDDEIRRIIKGADAFQINFFETFLGLLEKELNTEATASGQGHHSIGNTKRYDARMEAVNFSLNHDDGVSDKNLQEADVILMGVSRSGKTPTCLYLALQYGIRAANYPLIPDDLESADLPRMVKPYRDKLFGLTIQPERLQAIRQERRPNSTYAKIDTCRSEVADAQSMFRRHGIPFANTTDKSVEELAVHILQACKLKRRF”: the “soluble on expression in E. coli” value is listed as “not soluble”.

In the case of “MSSQNDYQSNGRYDNIYSQIDSEAKMSFSVDVLANIAIELQRGIGHQDRFQRLITTLRQVLECDASALLRYDSRQFIPLAIDGLAKDVLGRRFALEGHPRLEAIARAGDVVRFPADSELPDPYDGLIPGQESLKVHACVGLPLFAGQNLIGALTLDGMQPDQFDVFSDEELRLIAALAAGALSNALLIEQLESQNMLPGDATPFEAVKQTQMIGLSPGMTQLKKEIEIVAASDLNVLISGETGTGKELVAKAIHEASPRAVNPLVYLNCAALPESVAESELFGHVKGAFTGAISNRSGKFEMADNGTLFLDEIGELSLALQAKLLRVLQYGDIQRVGDDRCLRVDVRVLAATNRDLREEVLAGRFRADLFHRLSVFPLSVPPLRERGDDVILLAGYFCEQCRLRQGLSRVVLSAGARNLLQHYSFPGNVRELEHAIHRAVVLARATRSGDEVILEAQHFAFPEVTLPTPEVAAVPVVKQNLREATEAFQRETIRQALAQNHHNWAACARMLETDVANLHRLAKRLGLKD”, the “soluble on expression in E. coli” value is “not soluble”.

With “MSSRIEQIIEEIEEYIDKDCKFQPLSSTKIIVNKEHLDELLRELRMKTPDEIKRYQKIISNRDAILADAKAKADAMIEEAQVQTTELVSEHEIMQQAYAQANEIVTQATAQAQEIIDNATMDANEIRMGAIQYTDDLLANAESIIGHTLDSYTTKYDGLINSLQECYDVVRTNRAELESPTPEEGQEFSGEA”, the “soluble on expression in E. coli” value is reported as “not soluble”.

Consider “MSSSRHFSIPYDEDVVHSVILENTPSPPPKPPRGILRKEAPMKPQRSALKIEPARDDDKENNSQPQARSQFKAKDTMEQMQSYFKRSISVLRKSEEHFTGAEAADILTAYIETHRNEFPRDNIGRSNAVKLLEIWLESNTIQSVESHQKKFVDSERTFYRLGGDSESLYIVNTPIASRNHDDSASVSRSESSRRSNSIKRLFSPFVRRNRSNSRGRDKDKDNLKDGSSTNLKSTWSLFSSSSEKNEKKLKKAEQQLIKEEEAEVYELSLFHLLSLIDVEFLEDVALPVQDSKNNASFLSSILGKVGLGASEERLDPHQEDHMDLLIETHPLIRDASQWFQMARCCAPLLYFEAKPVASNHKTSHNEQLYLWCRAALDAVKNRLEKMTQNGSSPLFPSEFAPLLTKIAQQLINDMDSGEKLSTAVMYIFLMVPHPIRKTIDQLVQWLQLTMRTDAVEDLRSPYYLGKKDPRRYKENVNVIIGELSSFIFPRGCMTNVQQDIFIETLVELRQKGKLGQRPAQLESSLRAKSVNGQIKWQRKERKHNSLEGDLTPVRYTVRRESIRSKTSKSKDGLNETDSALVTMINSVIDNKELSLTEKKKQLMNFKKFYPKLYNDFFPGMI”, for which the “soluble on expression in E. coli” value was “not soluble”.

On to “MSSSSSSEDELEKKVTKEQKKKETKSKKRQSEAVEEEKQEVKKAKNEEEVSGRLKDSDGNEMFEIGNLRYATVSKFKGKEYVNIREYYIDRDSQKMMPSRKGISLSKAQWANLKDLIPEIDKKF”, for which the “soluble on expression in E. coli” value is “soluble”.

“MSSTIKAIAVLKGDSPVQGVITFTQESSGGPVTVSGEIKNMDANAQRGFHVHQFGDNSNGCTSAGPHFNPTGTNHGDRTAEVRHVGDLGNVKTDASGVAKVQISDSQLSLVGPHSIIGRTIVIHAGEDDLGKTDHPESLKTGNAGARSACGVIGIAAAAALEHHHHHH”: the “soluble on expression in E. coli” value is recorded as “soluble”.
